From publication PMC9404468

What was measured:
[1] = target: thyroid hormone receptor beta (TRb), His-tagged, from pETSUMO-TRb (UniProt P10828); test: peptide or protein array
[2] = target: human Hsp90a (heat shock protein 90 alpha), purified full-length (human) (UniProt P07900); test: peptide or protein array

| EC50 [2] | Substance | EC50 [1] |
| --- | --- | --- |
|  | human Hsp90a (heat shock protein 90 alpha), purified full-length (from UniProt P07900 1-732) (natural protein) | 0.124 µM |
| 1.24 µM | thyroid hormone receptor beta (TRb), His-tagged, from pETSUMO-TRb (from UniProt P10828 1-461) |  |
